# Biological target: condensin I tetramer lacking NCAPG (CIΔG) (Homo sapiens, UniProt O95347;Q9NTJ3;Q15003;Q15021 1-1197;1-1288;1-741;1-1401)
# Assay: EMSA; 2.5 mM Mg2+; EMSA: 50 nM DNA, 20 mM HEPES pH 8, 150 mM KCl, 2.5 mM MgCl2, 10% glycerol, 1 mM DTT, on ice 20 min; 2% agarose, 0.5x TB
# Conditions: protein: recombinant; tags: Strep; copies: 1;1;1;1; label: 5' Cy5 on reverse strand (S2); blunt
# Sequence of condensin I tetramer lacking NCAPG (CIΔG) (O95347 whole entry, stated change not applied, chain 1 of 4): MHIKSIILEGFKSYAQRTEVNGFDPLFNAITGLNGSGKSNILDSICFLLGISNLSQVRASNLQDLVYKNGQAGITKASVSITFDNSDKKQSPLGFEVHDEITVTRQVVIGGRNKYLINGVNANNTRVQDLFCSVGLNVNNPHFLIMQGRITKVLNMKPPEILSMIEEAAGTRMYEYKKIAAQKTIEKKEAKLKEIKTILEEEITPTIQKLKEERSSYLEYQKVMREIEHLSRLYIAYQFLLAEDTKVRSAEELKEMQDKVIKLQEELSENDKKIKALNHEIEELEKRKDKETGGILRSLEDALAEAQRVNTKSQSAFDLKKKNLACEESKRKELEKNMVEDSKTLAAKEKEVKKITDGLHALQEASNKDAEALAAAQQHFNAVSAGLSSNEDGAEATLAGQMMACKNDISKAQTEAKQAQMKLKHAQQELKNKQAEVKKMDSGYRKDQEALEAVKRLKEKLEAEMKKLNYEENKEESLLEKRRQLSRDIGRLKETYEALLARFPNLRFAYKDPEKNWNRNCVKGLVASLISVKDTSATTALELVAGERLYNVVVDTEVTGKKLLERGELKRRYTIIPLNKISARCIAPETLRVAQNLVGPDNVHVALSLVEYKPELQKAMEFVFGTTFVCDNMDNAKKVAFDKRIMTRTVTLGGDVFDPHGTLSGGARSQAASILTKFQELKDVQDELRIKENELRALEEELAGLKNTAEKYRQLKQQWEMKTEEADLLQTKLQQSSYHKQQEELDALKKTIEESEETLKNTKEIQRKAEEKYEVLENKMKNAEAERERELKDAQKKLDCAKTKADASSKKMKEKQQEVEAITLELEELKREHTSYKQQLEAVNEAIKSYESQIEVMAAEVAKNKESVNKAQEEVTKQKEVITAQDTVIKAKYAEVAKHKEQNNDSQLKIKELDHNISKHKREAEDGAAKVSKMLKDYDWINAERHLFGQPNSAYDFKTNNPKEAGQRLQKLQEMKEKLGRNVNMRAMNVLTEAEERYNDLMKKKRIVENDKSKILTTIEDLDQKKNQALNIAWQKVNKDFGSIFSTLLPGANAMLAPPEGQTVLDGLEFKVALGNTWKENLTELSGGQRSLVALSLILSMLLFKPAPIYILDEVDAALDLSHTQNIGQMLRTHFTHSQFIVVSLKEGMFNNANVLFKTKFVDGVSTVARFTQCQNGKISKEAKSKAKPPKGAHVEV
# Sequence of condensin I tetramer lacking NCAPG (CIΔG) (Q9NTJ3 whole entry, stated change not applied, chain 2 of 4): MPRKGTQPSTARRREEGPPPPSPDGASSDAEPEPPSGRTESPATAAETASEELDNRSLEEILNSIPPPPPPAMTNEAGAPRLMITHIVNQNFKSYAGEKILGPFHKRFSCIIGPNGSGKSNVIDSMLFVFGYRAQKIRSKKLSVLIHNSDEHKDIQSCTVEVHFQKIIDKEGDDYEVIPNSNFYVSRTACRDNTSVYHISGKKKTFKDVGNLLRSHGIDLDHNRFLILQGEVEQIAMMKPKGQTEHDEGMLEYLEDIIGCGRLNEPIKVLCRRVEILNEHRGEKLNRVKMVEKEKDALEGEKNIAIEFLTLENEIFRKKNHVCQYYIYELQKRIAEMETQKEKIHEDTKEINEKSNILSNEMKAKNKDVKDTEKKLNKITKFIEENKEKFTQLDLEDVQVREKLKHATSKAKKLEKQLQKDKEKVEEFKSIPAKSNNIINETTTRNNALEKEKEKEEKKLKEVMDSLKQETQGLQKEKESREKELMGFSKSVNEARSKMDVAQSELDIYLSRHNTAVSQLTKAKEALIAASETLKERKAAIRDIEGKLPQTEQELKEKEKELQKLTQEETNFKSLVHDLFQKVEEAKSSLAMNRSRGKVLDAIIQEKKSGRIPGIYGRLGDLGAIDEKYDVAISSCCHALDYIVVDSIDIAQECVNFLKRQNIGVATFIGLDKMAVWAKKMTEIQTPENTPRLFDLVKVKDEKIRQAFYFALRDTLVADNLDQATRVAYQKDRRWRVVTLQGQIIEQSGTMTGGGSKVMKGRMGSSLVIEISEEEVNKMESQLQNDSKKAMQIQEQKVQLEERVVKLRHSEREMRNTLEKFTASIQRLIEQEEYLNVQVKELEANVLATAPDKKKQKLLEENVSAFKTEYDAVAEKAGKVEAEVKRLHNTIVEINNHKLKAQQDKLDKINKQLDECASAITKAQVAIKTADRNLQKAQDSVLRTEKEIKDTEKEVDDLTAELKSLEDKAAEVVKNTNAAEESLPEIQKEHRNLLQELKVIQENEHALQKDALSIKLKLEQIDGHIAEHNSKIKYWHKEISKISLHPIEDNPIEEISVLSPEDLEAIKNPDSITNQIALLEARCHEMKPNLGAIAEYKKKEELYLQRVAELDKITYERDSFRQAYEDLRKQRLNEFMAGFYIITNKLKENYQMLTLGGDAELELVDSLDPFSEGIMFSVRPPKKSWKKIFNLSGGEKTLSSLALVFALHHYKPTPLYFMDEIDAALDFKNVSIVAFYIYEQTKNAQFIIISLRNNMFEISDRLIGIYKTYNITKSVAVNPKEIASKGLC
# Sequence of condensin I tetramer lacking NCAPG (CIΔG) (Q15003 whole entry, stated change not applied, chain 3 of 4): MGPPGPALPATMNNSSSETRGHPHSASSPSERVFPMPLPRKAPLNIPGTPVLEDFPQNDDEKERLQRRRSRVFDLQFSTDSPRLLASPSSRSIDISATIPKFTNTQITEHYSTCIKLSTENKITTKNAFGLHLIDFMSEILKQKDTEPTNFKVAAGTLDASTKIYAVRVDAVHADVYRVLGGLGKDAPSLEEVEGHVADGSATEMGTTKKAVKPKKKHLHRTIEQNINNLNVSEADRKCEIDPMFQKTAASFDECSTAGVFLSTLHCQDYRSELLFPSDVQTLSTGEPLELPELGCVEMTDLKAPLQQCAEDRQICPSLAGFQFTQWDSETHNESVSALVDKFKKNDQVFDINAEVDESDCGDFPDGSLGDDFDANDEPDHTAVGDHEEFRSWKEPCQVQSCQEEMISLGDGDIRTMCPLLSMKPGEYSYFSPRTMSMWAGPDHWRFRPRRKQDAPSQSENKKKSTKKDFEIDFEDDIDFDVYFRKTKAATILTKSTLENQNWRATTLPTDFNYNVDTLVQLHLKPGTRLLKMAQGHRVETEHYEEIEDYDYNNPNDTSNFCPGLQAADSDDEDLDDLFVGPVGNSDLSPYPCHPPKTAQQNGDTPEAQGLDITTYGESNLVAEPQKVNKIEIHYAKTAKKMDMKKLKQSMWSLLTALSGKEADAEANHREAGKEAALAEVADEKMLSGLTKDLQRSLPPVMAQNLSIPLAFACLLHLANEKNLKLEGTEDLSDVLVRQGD
# Sequence of condensin I tetramer lacking NCAPG (CIΔG) (Q15021 whole entry, stated change not applied, chain 4 of 4): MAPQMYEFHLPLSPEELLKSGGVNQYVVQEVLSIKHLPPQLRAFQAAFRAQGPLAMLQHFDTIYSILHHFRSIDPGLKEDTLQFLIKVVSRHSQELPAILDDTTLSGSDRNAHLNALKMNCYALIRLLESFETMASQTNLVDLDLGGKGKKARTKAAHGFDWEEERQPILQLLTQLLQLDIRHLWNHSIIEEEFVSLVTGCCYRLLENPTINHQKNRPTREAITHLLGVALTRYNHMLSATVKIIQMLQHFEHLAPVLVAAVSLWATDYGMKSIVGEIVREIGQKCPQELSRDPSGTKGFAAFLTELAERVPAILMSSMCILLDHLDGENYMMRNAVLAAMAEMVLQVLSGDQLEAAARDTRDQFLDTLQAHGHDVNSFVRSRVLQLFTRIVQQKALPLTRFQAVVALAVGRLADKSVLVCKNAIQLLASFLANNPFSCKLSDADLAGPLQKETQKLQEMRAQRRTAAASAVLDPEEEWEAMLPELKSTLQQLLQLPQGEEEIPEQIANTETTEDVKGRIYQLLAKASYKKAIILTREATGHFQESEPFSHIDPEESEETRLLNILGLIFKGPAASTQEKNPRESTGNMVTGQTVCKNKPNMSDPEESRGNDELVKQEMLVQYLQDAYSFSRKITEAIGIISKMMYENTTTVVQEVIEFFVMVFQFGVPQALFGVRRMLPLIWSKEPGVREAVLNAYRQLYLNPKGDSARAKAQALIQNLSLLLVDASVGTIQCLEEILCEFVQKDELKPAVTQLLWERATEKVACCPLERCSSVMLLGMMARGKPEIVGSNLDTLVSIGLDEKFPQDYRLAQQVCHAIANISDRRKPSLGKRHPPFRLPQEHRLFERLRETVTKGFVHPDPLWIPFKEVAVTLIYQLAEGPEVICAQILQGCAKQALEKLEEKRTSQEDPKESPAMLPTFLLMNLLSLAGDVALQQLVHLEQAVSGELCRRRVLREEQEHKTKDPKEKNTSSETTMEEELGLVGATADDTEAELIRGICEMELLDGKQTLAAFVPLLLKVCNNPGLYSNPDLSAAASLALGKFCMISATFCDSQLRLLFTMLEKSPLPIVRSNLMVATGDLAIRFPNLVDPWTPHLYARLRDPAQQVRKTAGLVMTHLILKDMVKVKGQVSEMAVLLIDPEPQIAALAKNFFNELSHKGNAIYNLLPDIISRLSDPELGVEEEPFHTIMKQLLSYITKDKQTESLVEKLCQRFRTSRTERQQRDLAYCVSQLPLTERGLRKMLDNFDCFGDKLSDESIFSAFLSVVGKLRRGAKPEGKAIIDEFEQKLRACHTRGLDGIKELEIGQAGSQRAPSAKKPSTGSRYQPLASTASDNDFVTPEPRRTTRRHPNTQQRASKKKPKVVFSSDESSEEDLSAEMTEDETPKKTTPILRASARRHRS
binder,measurement,value
Cy5 50 bp dsDNA (dsDNA) DNA 1: GGTGTGACAGGGTGTGACAGGGTGTGACAGGGTGTGACAGGGTGTGACAG DNA 2: CTGTCACACCCTGTCACACCCTGTCACACCCTGTCACACCCTGTCACACC,binding signal,~4 fold lower affinity than CI
